Assay results taken from PMC5605572, “Phosphorylation of Suppressor of Hairless impedes its DNA-binding activity”.

Columns and labels:
Conditions in all cases: protein: ivt; label: radiolabelled (EMSA); 5' overhang 4 nt on each strand
[1] = molecular target: Su(H) R266H (Drosophila melanogaster, UniProt P28159 1-594, R266H); experiment: EMSA; EMSA: 10 mM Tris-HCl pH 7.5, 50 mM NaCl, 1 mM EDTA, 0.0275 ug/ul salmon sperm DNA; ITC: 50 mM sodium phosphate pH 6.5, 150 mM NaCl, 10 C, 10 uM Su(H) in cell, 100 uM DNA in syringe
Su(H) R266H, sequence (P28159 whole entry R266H): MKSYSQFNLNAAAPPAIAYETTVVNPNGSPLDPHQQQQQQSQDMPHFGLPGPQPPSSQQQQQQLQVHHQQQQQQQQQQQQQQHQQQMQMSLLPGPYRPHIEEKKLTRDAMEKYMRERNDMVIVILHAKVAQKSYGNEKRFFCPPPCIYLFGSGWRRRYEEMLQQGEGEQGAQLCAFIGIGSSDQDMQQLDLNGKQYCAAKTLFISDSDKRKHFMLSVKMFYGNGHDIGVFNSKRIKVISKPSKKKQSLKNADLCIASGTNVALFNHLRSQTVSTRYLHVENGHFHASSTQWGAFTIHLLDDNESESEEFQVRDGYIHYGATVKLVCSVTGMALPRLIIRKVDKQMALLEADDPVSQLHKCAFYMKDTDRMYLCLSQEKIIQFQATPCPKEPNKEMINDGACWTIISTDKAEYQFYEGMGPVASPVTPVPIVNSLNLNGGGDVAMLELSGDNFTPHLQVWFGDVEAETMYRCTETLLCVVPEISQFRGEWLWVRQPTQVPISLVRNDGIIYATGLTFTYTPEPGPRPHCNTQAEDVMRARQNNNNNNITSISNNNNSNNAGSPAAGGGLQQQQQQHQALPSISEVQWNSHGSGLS

[2] = molecular target: Su(H) S269A (Drosophila melanogaster, UniProt P28159 1-594, S269A); experiment: EMSA; no obvious difference from wt; self-competition with unlabelled oligo; EMSA: 10 mM Tris-HCl pH 7.5, 50 mM NaCl, 1 mM EDTA, 0.0275 ug/ul salmon sperm DNA; ITC: 50 mM sodium phosphate pH 6.5, 150 mM NaCl, 10 C, 10 uM Su(H) in cell, 100 uM DNA in syringe
Su(H) S269A, sequence (P28159 whole entry S269A): as the sequence (P28159 whole entry R266H) above, with H266R, S269A counted along it

[3] = molecular target: Su(H) wt (Drosophila melanogaster, UniProt P28159 1-594); experiment: EMSA; self-competition with unlabelled oligo; EMSA: 10 mM Tris-HCl pH 7.5, 50 mM NaCl, 1 mM EDTA, 0.0275 ug/ul salmon sperm DNA; ITC: 50 mM sodium phosphate pH 6.5, 150 mM NaCl, 10 C, 10 uM Su(H) in cell, 100 uM DNA in syringe
Su(H) wt, sequence (P28159 whole entry): as the sequence (P28159 whole entry R266H) above, with H266R counted along it

B1: E(spl)m8-S1 (dsDNA)
DNA 1: TTGGGTGGCTCGTGGCGTGGGAACCGAGCTGAAAG
DNA 2: GGTTCTTTCAGCTCGGTTCCCACGCCACGAGCCAC
**Q.** Does B1 bind [1]?
**A.** Result: no binding

**Q.** Does B1 bind [2]?
**A.** Result: binds

**Q.** Does B1 bind [3]?
**A.** Result: binds
